Assay results reported in article doi:10.1101/2020.02.20.958934 (bioRxiv, 2020).

Molecular target: T1, PEBP1 (UniProt P70296 1-187)
T1 sequence (looked up): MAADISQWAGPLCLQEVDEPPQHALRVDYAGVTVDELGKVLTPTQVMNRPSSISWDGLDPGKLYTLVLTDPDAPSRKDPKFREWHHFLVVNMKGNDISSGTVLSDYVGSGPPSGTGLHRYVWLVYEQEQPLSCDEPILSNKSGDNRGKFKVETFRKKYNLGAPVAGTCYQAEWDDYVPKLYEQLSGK
Test: ITC

B1: dendritic cell factor 1 (DCF1) (natural protein)
chain: EAFDSVLGDTASCHRACQLTYPLHTYPKEEELYACQRGCRLFSICQFVDDGLDLNRTKLECESACTEAYSQPDEQYACHLGCQDQLPFAELRQEQLMSLMPRMHLLFPLTLVRSFWSDMMDSAQSFITSSWTFYLQADDGKIVIFQSKPEIQYAPQLEQEPTNLRESSLSKMSYLQMRNSQAHRNYLEEEESDGFLRCLSLNSGWILTTTLVLSVMVLLWICCAAVATAVEQYVPPEKLSIYGDLEFMNEQKLSRYPAPSLVIVRSQTEEHEEAGPLPTKVNLAHSEI
dH: -329000 cal/mol | stoichiometry N: 0.753 ± 0.0359
